# From the supplement of paper PMC9112550, “Optimization of the antimicrobial peptide Bac7 by deep mutational scanning” (BMC Biology, 2022)
# Tested on: Escherichia coli TOP10
# Experiment: shrunken log2 fold change of peptide-encoding DNA abundance (4.5 h post-induction vs induction); higher = less antimicrobial activity (less host growth inhibition)
# Details: time post-induction: 4.5 h; library: site-saturation at positions 5, 18, 19, 20
# 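Note: peptides expressed intracellularly from a pBAD plasmid library in pooled LB shake-flask culture, induced with 0.3% L-arabinose, DNA abundance read by NGS, three biological replicates, DESeq2 with apeglm shrinkage.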
row,Sequence,shrunken log2 fold change
1,RRIRCRPPRLPRPRPRPRNMPRP,0.0316
2,RRIRCRPPRLPRPRPRPRNPPRP,0.176
3,RRIRCRPPRLPRPRPRPRNYPRP,-0.094
4,RRIRCRPPRLPRPRPRPRPPPRP,1.49
5,RRIRCRPPRLPRPRPRPRQRPRP,0.645
6,RRIRCRPPRLPRPRPRPRQVPRP,0.184
7,RRIRCRPPRLPRPRPRPRRAPRP,0.64
8,RRIRCRPPRLPRPRPRPRRGPRP,0.392
9,RRIRCRPPRLPRPRPRPRSAPRP,0.0532
10,RRIRCRPPRLPRPRPRPRSHPRP,-0.00365
11,RRIRCRPPRLPRPRPRPRVHPRP,-0.152
12,RRIRCRPPRLPRPRPRPRVQPRP,0.241
13,RRIRCRPPRLPRPRPRPRVVPRP,0.247
14,RRIRCRPPRLPRPRPRPRVYPRP,-0.217
15,RRIRCRPPRLPRPRPRPRWQPRP,0.0261
16,RRIRCRPPRLPRPRPRPRYEPRP,-0.0468
17,RRIRCRPPRLPRPRPRPRYVPRP,-0.22
18,RRIRCRPPRLPRPRPRPSCKPRP,-0.685
19,RRIRCRPPRLPRPRPRPSERPRP,-0.0162
20,RRIRCRPPRLPRPRPRPSFDPRP,-0.282
21,RRIRCRPPRLPRPRPRPSHEPRP,-0.334
22,RRIRCRPPRLPRPRPRPSKDPRP,-0.361
23,RRIRCRPPRLPRPRPRPSKRPRP,-0.12
24,RRIRCRPPRLPRPRPRPSNCPRP,-0.0679
25,RRIRCRPPRLPRPRPRPSNGPRP,-0.113

row,Sequence,shrunken log2 fold change
1,RRIRCRPPRLPRPRPRPSQFPRP,-0.787
2,RRIRCRPPRLPRPRPRPSQVPRP,-0.156
3,RRIRCRPPRLPRPRPRPSRHPRP,-0.33
4,RRIRCRPPRLPRPRPRPSTHPRP,-0.454
5,RRIRCRPPRLPRPRPRPSVMPRP,0.445
6,RRIRCRPPRLPRPRPRPSYGPRP,-0.627
7,RRIRCRPPRLPRPRPRPSYSPRP,-1.04
8,RRIRCRPPRLPRPRPRPTAKPRP,0.226
9,RRIRCRPPRLPRPRPRPTCPPRP,-0.26
10,RRIRCRPPRLPRPRPRPTCRPRP,0.211
11,RRIRCRPPRLPRPRPRPTDLPRP,0.0853
12,RRIRCRPPRLPRPRPRPTEPPRP,0.305
13,RRIRCRPPRLPRPRPRPTFPPRP,-0.0779
14,RRIRCRPPRLPRPRPRPTGDPRP,0.231
15,RRIRCRPPRLPRPRPRPTHCPRP,0.363
16,RRIRCRPPRLPRPRPRPTIAPRP,-0.211
17,RRIRCRPPRLPRPRPRPTITPRP,-0.44
18,RRIRCRPPRLPRPRPRPTKCPRP,-0.0551
19,RRIRCRPPRLPRPRPRPTKSPRP,-0.0425
20,RRIRCRPPRLPRPRPRPTKTPRP,0.137
21,RRIRCRPPRLPRPRPRPTLTPRP,-0.14
22,RRIRCRPPRLPRPRPRPTSHPRP,-0.348
23,RRIRCRPPRLPRPRPRPTSPPRP,0.102
24,RRIRCRPPRLPRPRPRPTSYPRP,-0.119
25,RRIRCRPPRLPRPRPRPTWHPRP,0.00453

row,Sequence,shrunken log2 fold change
1,RRIRCRPPRLPRPRPRPTWKPRP,-0.114
2,RRIRCRPPRLPRPRPRPTYFPRP,-0.0696
3,RRIRCRPPRLPRPRPRPTYSPRP,-1.01
4,RRIRCRPPRLPRPRPRPTYVPRP,-0.259
5,RRIRCRPPRLPRPRPRPVAEPRP,0.417
6,RRIRCRPPRLPRPRPRPVDMPRP,-0.247
7,RRIRCRPPRLPRPRPRPVEWPRP,0.000166
8,RRIRCRPPRLPRPRPRPVFEPRP,-0.00537
9,RRIRCRPPRLPRPRPRPVGIPRP,-0.24
10,RRIRCRPPRLPRPRPRPVGYPRP,0.0595
11,RRIRCRPPRLPRPRPRPVHCPRP,0.0148
12,RRIRCRPPRLPRPRPRPVHLPRP,0.0885
13,RRIRCRPPRLPRPRPRPVHMPRP,0.0385
14,RRIRCRPPRLPRPRPRPVHPPRP,-0.375
15,RRIRCRPPRLPRPRPRPVIGPRP,-0.18
16,RRIRCRPPRLPRPRPRPVKNPRP,-0.344
17,RRIRCRPPRLPRPRPRPVMYPRP,-0.199
18,RRIRCRPPRLPRPRPRPVNNPRP,-0.327
19,RRIRCRPPRLPRPRPRPVNYPRP,-0.376
20,RRIRCRPPRLPRPRPRPVRYPRP,0.0829
21,RRIRCRPPRLPRPRPRPVSQPRP,0.201
22,RRIRCRPPRLPRPRPRPVSRPRP,0.344
23,RRIRCRPPRLPRPRPRPVTEPRP,-0.127
24,RRIRCRPPRLPRPRPRPVVLPRP,-0.0778
25,RRIRCRPPRLPRPRPRPVVSPRP,-0.229

row,Sequence,shrunken log2 fold change
1,RRIRCRPPRLPRPRPRPVWPPRP,0.239
2,RRIRCRPPRLPRPRPRPVYDPRP,-0.683
3,RRIRCRPPRLPRPRPRPVYSPRP,-0.156
4,RRIRCRPPRLPRPRPRPWASPRP,0.0212
5,RRIRCRPPRLPRPRPRPWAYPRP,-0.508
6,RRIRCRPPRLPRPRPRPWCNPRP,-0.412
7,RRIRCRPPRLPRPRPRPWCRPRP,-0.282
8,RRIRCRPPRLPRPRPRPWDDPRP,0.0755
9,RRIRCRPPRLPRPRPRPWDKPRP,-0.0809
10,RRIRCRPPRLPRPRPRPWDRPRP,-0.608
11,RRIRCRPPRLPRPRPRPWEPPRP,-0.00185
12,RRIRCRPPRLPRPRPRPWEVPRP,0.431
13,RRIRCRPPRLPRPRPRPWFIPRP,-0.51
14,RRIRCRPPRLPRPRPRPWFRPRP,-0.269
15,RRIRCRPPRLPRPRPRPWGLPRP,-0.268
16,RRIRCRPPRLPRPRPRPWITPRP,-1.47
17,RRIRCRPPRLPRPRPRPWLWPRP,0.0682
18,RRIRCRPPRLPRPRPRPWMCPRP,-0.851
19,RRIRCRPPRLPRPRPRPWNAPRP,-0.129
20,RRIRCRPPRLPRPRPRPWPCPRP,1.63
21,RRIRCRPPRLPRPRPRPWPNPRP,-0.279
22,RRIRCRPPRLPRPRPRPWQQPRP,-0.000303
23,RRIRCRPPRLPRPRPRPWRRPRP,0.0523
24,RRIRCRPPRLPRPRPRPWSSPRP,0.615
25,RRIRCRPPRLPRPRPRPWTPPRP,-0.131

row,Sequence,shrunken log2 fold change
1,RRIRCRPPRLPRPRPRPWTQPRP,-0.12
2,RRIRCRPPRLPRPRPRPWVCPRP,0.0107
3,RRIRCRPPRLPRPRPRPWVGPRP,-0.167
4,RRIRCRPPRLPRPRPRPWWEPRP,-0.368
5,RRIRCRPPRLPRPRPRPWWRPRP,0.157
6,RRIRCRPPRLPRPRPRPWWSPRP,0.119
7,RRIRCRPPRLPRPRPRPWYHPRP,-0.392
8,RRIRCRPPRLPRPRPRPYCHPRP,-1.37
9,RRIRCRPPRLPRPRPRPYDQPRP,-0.16
10,RRIRCRPPRLPRPRPRPYDVPRP,-0.0223
11,RRIRCRPPRLPRPRPRPYEGPRP,-0.103
12,RRIRCRPPRLPRPRPRPYEVPRP,-0.0152
13,RRIRCRPPRLPRPRPRPYHFPRP,-1.01
14,RRIRCRPPRLPRPRPRPYHIPRP,-0.27
15,RRIRCRPPRLPRPRPRPYKQPRP,-0.211
16,RRIRCRPPRLPRPRPRPYMKPRP,-0.582
17,RRIRCRPPRLPRPRPRPYNQPRP,-1.23
18,RRIRCRPPRLPRPRPRPYPMPRP,-0.424
19,RRIRCRPPRLPRPRPRPYQTPRP,-0.0384
20,RRIRCRPPRLPRPRPRPYRVPRP,1.99
21,RRIRCRPPRLPRPRPRPYSWPRP,-0.77
22,RRIRCRPPRLPRPRPRPYVMPRP,-0.633
23,RRIRCRPPRLPRPRPRPYVNPRP,-1.3
24,RRIRCRPPRLPRPRPRPYVPPRP,-0.323
25,RRIRCRPPRLPRPRPRPYVVPRP,0.0333

row,Sequence,shrunken log2 fold change
1,RRIRCRPPRLPRPRPRPYWNPRP,-0.629
2,RRIRCRPPRLPRPRPRPYYIPRP,-0.564
3,RRIRCRPPRLPRPRPRPYYTPRP,0.00417
4,RRIRDRPPRLPRPRPRPAAHPRP,0.66
5,RRIRDRPPRLPRPRPRPADQPRP,0.553
6,RRIRDRPPRLPRPRPRPAEMPRP,0.515
7,RRIRDRPPRLPRPRPRPAFQPRP,0.201
8,RRIRDRPPRLPRPRPRPAHEPRP,-0.0156
9,RRIRDRPPRLPRPRPRPAHRPRP,-0.0802
10,RRIRDRPPRLPRPRPRPAIDPRP,0.336
11,RRIRDRPPRLPRPRPRPAIEPRP,0.0117
12,RRIRDRPPRLPRPRPRPAIIPRP,0.0892
13,RRIRDRPPRLPRPRPRPAQFPRP,0.442
14,RRIRDRPPRLPRPRPRPARKPRP,0.574
15,RRIRDRPPRLPRPRPRPASAPRP,0.616
16,RRIRDRPPRLPRPRPRPASGPRP,0.15
17,RRIRDRPPRLPRPRPRPATTPRP,0.163
18,RRIRDRPPRLPRPRPRPAVPPRP,-0.00426
19,RRIRDRPPRLPRPRPRPAWGPRP,0.769
20,RRIRDRPPRLPRPRPRPAWNPRP,0.428
21,RRIRDRPPRLPRPRPRPAYCPRP,0.00854
22,RRIRDRPPRLPRPRPRPAYKPRP,-0.456
23,RRIRDRPPRLPRPRPRPAYVPRP,-0.00133
24,RRIRDRPPRLPRPRPRPCADPRP,0.167
25,RRIRDRPPRLPRPRPRPCCGPRP,1.13
